{
  "source": "patent US20230312735A1",
  "about": "(IMMUNOGEN, published 2023)",
  "binders": {"B1": {"name": "IMGN632 (immunoconjugate of the anti-CD123 huCD123-6Gv4.7 antibody linked to DGN549-C) (antibody, V domains shown)", "VH": "QVQLVQSGAEVKKPGASVKVSCKASGYIFTSSIMHWVRQAPGQGLEWIGYIKPYNDGTKYNEKFKGRATLTSDRSTSTAYMELSSLRSEDTAVYYCAREGGNDYYDTMDYWGQGTLVTVSS", "VL": "DIQMTQSPSSLSASVGDRVTITCRASQDINSYLSWFQQKPGKAPKTLIYRVNRLVDGVPSRFSGSGSGNDYTLTISSLQPEDFATYYCLQYDAFPYTFGQGTKVEIKR", "modifications": "DGN549-C cytotoxic agent (peptide linker) covalently linked through a cysteine residue (huCD123-6Gv7-C442 heavy chain); average of 1.5 to 2.1 DGN549-C per antibody, mostly the sulfonated form", "notes": "also called anti-CD123 immunoconjugate; G4723A-DGN549-C"}},
  "biological_target": "T1, human CD123 (interleukin-3 receptor alpha subunit) (human, UniProt P26951 19-378)",
  "T1 construct": "Native CD123 on patients' cells; also called IL-3Rα; Interleukine-3 Receptor alpha",
  "T1 sequence (P26951 19-378 limits assumed)": "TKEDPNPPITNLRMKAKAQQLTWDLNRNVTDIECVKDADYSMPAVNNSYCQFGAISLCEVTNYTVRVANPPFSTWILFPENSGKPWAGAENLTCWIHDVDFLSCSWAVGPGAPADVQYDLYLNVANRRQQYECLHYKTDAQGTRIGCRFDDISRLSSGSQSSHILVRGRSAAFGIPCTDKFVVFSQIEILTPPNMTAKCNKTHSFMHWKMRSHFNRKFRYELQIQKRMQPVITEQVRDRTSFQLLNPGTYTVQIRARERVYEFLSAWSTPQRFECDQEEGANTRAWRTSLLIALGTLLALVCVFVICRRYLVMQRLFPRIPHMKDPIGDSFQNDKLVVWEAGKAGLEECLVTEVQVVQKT",
  "assay": "average CD123 receptor saturation on patients' cells after intravenous IMGN632, Schedule A, Cohorts 1-6 (method not described)",
  "data": [
    {"binder": "B1", "values": [
      {"measurement": "binding result", "result": "binds"}
    ]}
  ]
}
